Experimental data reported in patent EP4772193A1 (Teijin Pharma Limited, dated 2026).
Read-outs that look alike come from different tables or passages of the source.

What was measured:
[1] = target: T1, recombinant human soluble gpNMB (recombinant human gpNMB-FLAG-His) (human, UniProt Q14956 23-498); test: SPR, antibody over captured gpNMB-FLAG-His, 1:1 model
T1 sequence: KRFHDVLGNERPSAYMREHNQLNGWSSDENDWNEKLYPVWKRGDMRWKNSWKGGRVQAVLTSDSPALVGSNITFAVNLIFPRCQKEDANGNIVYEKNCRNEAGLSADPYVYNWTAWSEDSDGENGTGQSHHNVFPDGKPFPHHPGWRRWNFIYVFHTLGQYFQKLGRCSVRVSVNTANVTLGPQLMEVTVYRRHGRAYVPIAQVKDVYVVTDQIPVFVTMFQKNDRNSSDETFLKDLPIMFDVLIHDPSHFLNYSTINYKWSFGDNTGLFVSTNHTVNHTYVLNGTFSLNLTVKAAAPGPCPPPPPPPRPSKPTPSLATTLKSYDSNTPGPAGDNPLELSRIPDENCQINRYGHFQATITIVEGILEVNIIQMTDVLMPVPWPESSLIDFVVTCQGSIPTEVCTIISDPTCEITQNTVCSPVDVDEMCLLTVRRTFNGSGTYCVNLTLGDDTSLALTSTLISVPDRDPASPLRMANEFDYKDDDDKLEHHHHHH

[2] = target: T1, recombinant human soluble gpNMB …; test: antigen ELISA
[3] = target: T1, recombinant human soluble gpNMB …; test: antigen ELISA; remark: listed apart in the source
[4] = target: T1, recombinant human soluble gpNMB …; test: antigen ELISA; remark: listed apart in the source
[5] = target: T1, recombinant human soluble gpNMB …; test: antigen ELISA, vs hGPN06-1_H1L1
[6] = target: T1, recombinant human soluble gpNMB …; test: antigen ELISA; remark: listed apart in the source
[7] = target: T1, recombinant human soluble gpNMB …; test: antigen ELISA, vs hGPN06-1_H1L1; remark: listed apart in the source
[8] = target: T1, recombinant human soluble gpNMB …; test: antigen ELISA, vs hGPN06-1_H1L1; remark: listed apart in the source

Kd [1]: 0.62 nM
koff [1]: 0.000567 s⁻¹
kon [1]: 916000 M⁻¹ s⁻¹
EC50 [2]: 1.98 nM
EC50 [3]: 0.575 nM
EC50 [4]: 1.98 nM
Relative binding activity [5]: 1
EC50 [6]: 1.98 nM
Relative binding activity [7]: 1
Relative binding activity [8]: 1
B1: hGPN06-1_H1L1 (antibody, V domains shown)
VH: QVQLVQSGAEVKKPGASVKVSCKASGYTFTDNWMGWVKQRPGQGLEWIGAIDPSDSFTNYNQNFKGRVTMTVDTSISTAYMELSRLRSDDSAVYFCTRSGYYGSPKLGGDYWGQGTLVTVSS
VL: EIVLTQSPSSLSASVGDRVTITCSASSSISYMHWYQQKSGTAPKLLIYSTSNLASGVPSRFSGSGSGTDFTFTISSLQPEDAATYYCHQWNSYPCTFGGGTKLEIK
notes: humanized; also called humanized anti-gpNMB antibody H1L1
